Assay results as given in patent US20250002610A1 (Genmab, published 2025).

Assays:
[1] = biological target: T1, cynomolgus monkey FAPα on Expi293F cells (cynomolgus monkey (Macaca fascicularis), UniProt Q12884 1-760 (human entry)); assay: flow cytometry, Expi293F cells expressing cynomolgus monkey FAPα, n = 1
T1 sequence: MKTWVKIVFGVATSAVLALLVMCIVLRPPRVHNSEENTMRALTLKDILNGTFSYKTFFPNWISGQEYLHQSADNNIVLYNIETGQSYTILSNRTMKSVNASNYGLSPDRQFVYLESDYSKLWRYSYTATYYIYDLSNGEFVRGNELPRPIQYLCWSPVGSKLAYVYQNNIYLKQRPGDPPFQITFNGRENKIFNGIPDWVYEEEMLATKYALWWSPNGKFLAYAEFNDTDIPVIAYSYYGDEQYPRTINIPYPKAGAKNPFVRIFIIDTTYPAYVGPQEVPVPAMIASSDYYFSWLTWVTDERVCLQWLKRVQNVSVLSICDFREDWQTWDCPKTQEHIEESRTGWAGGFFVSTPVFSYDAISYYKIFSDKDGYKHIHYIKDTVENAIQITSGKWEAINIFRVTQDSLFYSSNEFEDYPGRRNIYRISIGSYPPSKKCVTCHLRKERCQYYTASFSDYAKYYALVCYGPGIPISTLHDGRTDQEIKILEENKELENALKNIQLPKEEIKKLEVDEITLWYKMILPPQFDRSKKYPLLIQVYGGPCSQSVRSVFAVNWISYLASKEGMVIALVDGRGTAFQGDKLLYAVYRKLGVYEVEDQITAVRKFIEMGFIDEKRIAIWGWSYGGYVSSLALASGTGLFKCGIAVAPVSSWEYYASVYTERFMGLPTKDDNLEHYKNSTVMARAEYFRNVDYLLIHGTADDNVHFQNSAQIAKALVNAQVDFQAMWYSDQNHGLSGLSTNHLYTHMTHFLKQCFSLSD
Protocol: Binding of BisG1-FAPα-FERL/DR4-FERR, BisG1-FAPα-FEAL/b12-FEAR and IgG1-FAPα-FERL to FAPα of species commonly used for nonclinical toxicology studies was assessed by flow cytometry using Expi293F cells transiently expressing FAPα from different animal species. IgG1-b12 was included as negative control.
Expi293F cells expressing recombinant FAPα from various species (human, cynomolgus monkey, dog, pig, rat or mouse) were seeded (20,000 cells/well) in 96-Well round bottom plates (Greiner Bio-one, Cat #650101). Antibody dilutions were prepared using FACS buffer, consisting of PBS (Capricorn Scientific, Cat #PBS-10XA, diluted to 1×PBS in distilled water)+1% BSA (Roche, Cat #10735086001)+0.02% Sodium Azide (Bio-World, Cat #41920044-3). Plates were centrifuged, supernatant was removed, and cells were resuspended in 100 μL of antibody dilutions (concentration range 30-0.00017 μg/mL with three-fold serial dilutions using FACS buffer) of BisG1-FAPα-FERL/DR4-FERR, BisG1-FAPα-FEAL/b12-FEAR, IgG1-FAPα-FERL and IgG1-b12 and incubated for 30 min at 4° C. […] After 30 min incubation at 4° C., cells were washed with FACS buffer and resuspended in FACS buffer supplemented with TO-PRO-3 Iodide viability marker (Invitrogen, Cat #T3605, diluted 1:4,000). Antibody binding to viable cells (gMFI of PE on TO-PRO-3 negative cells) was analyzed by flow cytometry on a FACS Celesta and FACS_Diva software (first two experiments) or iQue® 3 and FlowJo software (last experiment). gMFI was determined and visualized using GraphPad Prism. Binding curves were analyzed using nonlinear regression analysis. The concentration (pg/mL) at which 50% of the maximal effect was observed (EC₅₀) was derived from the fitted curves.

[2] = biological target: T2, human DR4 (Death Receptor 4), cell surface expressed on human tumor cell lines (human, UniProt O00220 24-468); assay: flow cytometry, MDA-MB-231 cells, average ± SEM
T2 construct: also called TNFRSF10A; TRAIL-R1
T2 sequence: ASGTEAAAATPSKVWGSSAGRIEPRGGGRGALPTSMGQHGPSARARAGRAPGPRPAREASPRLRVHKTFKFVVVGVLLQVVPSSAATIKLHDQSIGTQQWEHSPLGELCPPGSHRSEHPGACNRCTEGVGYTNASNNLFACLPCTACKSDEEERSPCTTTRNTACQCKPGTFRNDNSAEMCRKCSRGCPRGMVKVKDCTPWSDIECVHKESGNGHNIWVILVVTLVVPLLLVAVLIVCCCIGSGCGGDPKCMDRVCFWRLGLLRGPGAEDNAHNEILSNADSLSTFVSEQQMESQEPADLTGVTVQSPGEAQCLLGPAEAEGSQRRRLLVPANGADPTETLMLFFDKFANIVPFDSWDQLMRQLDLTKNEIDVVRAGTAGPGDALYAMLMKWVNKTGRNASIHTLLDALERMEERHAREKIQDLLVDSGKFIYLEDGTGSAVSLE

[3] = biological target: T2, human DR4 (Death Receptor 4), cell …; assay: flow cytometry, HCT-15 cells, n = 3
[4] = biological target: T2, human DR4 (Death Receptor 4), cell …; assay: flow cytometry, HCT-116 cells, average ± SEM
[5] = biological target: T2, human DR4 (Death Receptor 4), cell …; assay: flow cytometry, DLD-1 cells, average ± SEM

B1: BisG1-FAPα-FEAL/b12-FEAR (bispecific antibody, human IgG1, kappa)
heavy 1: EVQLLESGGGLVQPGGSPRLSCEASGFTFSSYALSWVRQAPGKGLEWVSAISGSGGGRYYADSVKGRFTISRDNSKNTLFLQMNSLRAEDTAVYYCAKEGYSSSGTYWDHWGQGTLVTVSSASTKGPSVFPLAPSSKSTSGGTAALGCLVKDYFPEPVTVSWNSGALTSGVHTFPAVLQSSGLYSLSSVVTVPSSSLGTQTYICNVNHKPSNTKVDKRVEPKSCDKTHTCPPCPAPEFEGGPSVFLFPPKPKDTLMISRTPEVTCVVVAVSHEDPEVKFNWYVDGVEVHNAKTKPREEQYNSTYRVVSVLTVLHQDWLNGKEYKCKVSNKALPAPIEKTISKAKGQPREPQVYTLPPSREEMTKNQVSLTCLVKGFYPSDIAVEWESNGQPENNYKTTPPVLDSDGSFLLYSKLTVDKSRWQQGNVFSCSVMHEALHNHYTQKSLSLSPG
light 1: AIQMTQSPSSVSASVGDRVTITCRASQGVSSWLAWYQQKPGRAPKLLIYVASTLQSGVPSRFSGSGSGTDFTLTINSLQPEDFATYYCQQANSFPPTFGQGTRLEMKRTVAAPSVFIFPPSDEQLKSGTASVVCLLNNFYPREAKVQWKVDNALQSGNSQESVTEQDSKDSTYSLSSTLTLSKADYEKHKVYACEVTHQGLSSPVTKSFNRGEC
heavy 2: QVQLVQSGAEVKKPGASVKVSCQASGYRFSNFVIHWVRQAPGQRFEWMGWINPYNGNKEFSAKFQDRVTFTADTSANTAYMELRSLRSADTAVYYCARVGPYSWDDSPQDNYYMDVWGKGTTVIVSSASTKGPSVFPLAPSSKSTSGGTAALGCLVKDYFPEPVTVSWNSGALTSGVHTFPAVLQSSGLYSLSSVVTVPSSSLGTQTYICNVNHKPSNTKVDKRVEPKSCDKTHTCPPCPAPEFEGGPSVFLFPPKPKDTLMISRTPEVTCVVVAVSHEDPEVKFNWYVDGVEVHNAKTKPREEQYNSTYRVVSVLTVLHQDWLNGKEYKCKVSNKALPAPIEKTISKAKGQPREPQVYTLPPSREEMTKNQVSLTCLVKGFYPSDIAVEWESNGQPENNYKTTPPVLDSDGSFFLYSRLTVDKSRWQQGNVFSCSVMHEALHNHYTQKSLSLSPG
light 2: EIVLTQSPGTLSLSPGERATFSCRSSHSIRSRRVAWYQHKPGQAPRLVIHGVSNRASGISDRFSGSGSGTDFTLTITRVEPEDFALYYCQVYGASSYTFGQGTKLERKRTVAAPSVFIFPPSDEQLKSGTASVVCLLNNFYPREAKVQWKVDNALQSGNSQESVTEQDSKDSTYSLSSTLTLSKADYEKHKVYACEVTHQGLSSPVTKSFNRGEC
notes: Fab-arm exchange of IgG1-FAPα-FEAL and IgG1-b12-FEAR
- EC50 [1]: 0.05 mg/L

B2: IgG1-FAPα-FERL (antibody)
heavy: EVQLLESGGGLVQPGGSPRLSCEASGFTFSSYALSWVRQAPGKGLEWVSAISGSGGGRYYADSVKGRFTISRDNSKNTLFLQMNSLRAEDTAVYYCAKEGYSSSGTYWDHWGQGTLVTVSSASTKGPSVFPLAPSSKSTSGGTAALGCLVKDYFPEPVTVSWNSGALTSGVHTFPAVLQSSGLYSLSSVVTVPSSSLGTQTYICNVNHKPSNTKVDKRVEPKSCDKTHTCPPCPAPEFERGPSVFLFPPKPKDTLMISRTPEVTCVVVDVSHEDPEVKFNWYVDGVEVHNAKTKPREEQYNSTYRVVSVLTVLHQDWLNGKEYKCKVSNKALPAPIEKTISKAKGQPREPQVYTLPPSREEMTKNQVSLTCLVKGFYPSDIAVEWESNGQPENNYKTTPPVLDSDGSFLLYSKLTVDKSRWQQGNVFSCSVMHEALHNHYTQKSLSLSPG
light: AIQMTQSPSSVSASVGDRVTITCRASQGVSSWLAWYQQKPGRAPKLLIYVASTLQSGVPSRFSGSGSGTDFTLTINSLQPEDFATYYCQQANSFPPTFGQGTRLEMKRTVAAPSVFIFPPSDEQLKSGTASVVCLLNNFYPREAKVQWKVDNALQSGNSQESVTEQDSKDSTYSLSSTLTLSKADYEKHKVYACEVTHQGLSSPVTKSFNRGEC
notes: Bivalent monoclonal IgG1 kappa
- EC50 [1]: 0.03 mg/L

B3: IgG1-DR4-FERR (antibody, V domains shown)
VH: QVQLQESGPGLVKPSGTLSLTCAVSGGSISSYSWWSWIRQPPGKGLEWIGELYHSGSTNYNPSLKSRVTISVDKSKNQFSLKLRSVTAADTAVYYCVRGVATIDYWGQGTLVTVSS
VL: QSALTQPPSASGSPGQSVTISCTGTSSDVGGYNFVSWYQQDPGKAPKLLIYEVTKRPSGVPDRFSGSKSGNTASLTVSGLQAEDEADYYCSSYAGSNNVMFGGGTKLTVLG
notes: Bivalent monoclonal IgG1 lambda
- EC50 [2]: 0.25 mg/L
- EC50 [3]: 0.15 mg/L
- EC50 [4]: 0.16 mg/L
- EC50 [5]: 0.26 mg/L

B4: BisG1-b12-FERL/DR4-FERR (bispecific antibody, human IgG1, kappa, lambda)
heavy 1: QVQLVQSGAEVKKPGASVKVSCQASGYRFSNFVIHWVRQAPGQRFEWMGWINPYNGNKEFSAKFQDRVTFTADTSANTAYMELRSLRSADTAVYYCARVGPYSWDDSPQDNYYMDVWGKGTTVIVSSASTKGPSVFPLAPSSKSTSGGTAALGCLVKDYFPEPVTVSWNSGALTSGVHTFPAVLQSSGLYSLSSVVTVPSSSLGTQTYICNVNHKPSNTKVDKRVEPKSCDKTHTCPPCPAPEFERGPSVFLFPPKPKDTLMISRTPEVTCVVVDVSHEDPEVKFNWYVDGVEVHNAKTKPREEQYNSTYRVVSVLTVLHQDWLNGKEYKCKVSNKALPAPIEKTISKAKGQPREPQVYTLPPSREEMTKNQVSLTCLVKGFYPSDIAVEWESNGQPENNYKTTPPVLDSDGSFLLYSKLTVDKSRWQQGNVFSCSVMHEALHNHYTQKSLSLSPG
light 1: EIVLTQSPGTLSLSPGERATFSCRSSHSIRSRRVAWYQHKPGQAPRLVIHGVSNRASGISDRFSGSGSGTDFTLTITRVEPEDFALYYCQVYGASSYTFGQGTKLERKRTVAAPSVFIFPPSDEQLKSGTASVVCLLNNFYPREAKVQWKVDNALQSGNSQESVTEQDSKDSTYSLSSTLTLSKADYEKHKVYACEVTHQGLSSPVTKSFNRGEC
heavy 2: QVQLQESGPGLVKPSGTLSLTCAVSGGSISSYSWWSWIRQPPGKGLEWIGELYHSGSTNYNPSLKSRVTISVDKSKNQFSLKLRSVTAADTAVYYCVRGVATIDYWGQGTLVTVSSASTKGPSVFPLAPSSKSTSGGTAALGCLVKDYFPEPVTVSWNSGALTSGVHTFPAVLQSSGLYSLSSVVTVPSSSLGTQTYICNVNHKPSNTKVDKRVEPKSCDKTHTCPPCPAPEFERGPSVFLFPPKPKDTLMISRTPEVTCVVVDVSHEDPEVKFNWYVDGVEVHNAKTKPREEQYNSTYRVVSVLTVLHQDWLNGKEYKCKVSNKALPAPIEKTISKAKGQPREPQVYTLPPSREEMTKNQVSLTCLVKGFYPSDIAVEWESNGQPENNYKTTPPVLDSDGSFFLYSRLTVDKSRWQQGNVFSCSVMHEALHNHYTQKSLSLSPG
light 2: QSALTQPPSASGSPGQSVTISCTGTSSDVGGYNFVSWYQQDPGKAPKLLIYEVTKRPSGVPDRFSGSKSGNTASLTVSGLQAEDEADYYCSSYAGSNNVMFGGGTKLTVLGQPKAAPSVTLFPPSSEELQANKATLVCLISDFYPGAVTVAWKADSSPVKAGVETTTPSKQSNNKYAASSYLSLTPEQWKSHRSYSCQVTHEGSTVEKTVAPTECS
notes: Fab-arm exchange of IgG1-b12-FERL and IgG1-DR4-FERR; also called bsIgG1-ctrl-FERLxDR4-FERR
- EC50 [2]: 0.67 mg/L
- Max MFI (at 90 µg/mL) [2]: 7840 MFI
- EC50 [3]: 0.53 mg/L
- EC50 [4]: 0.57 mg/L
- EC50 [5]: 0.72 mg/L
